“Also recorded” adds a separate entry of the source. Where no end group is shown, it is not given here. [ ]: non-standard residue; d: D form.
Experiments:
Format in all cases: cell-based
[1] = biological target: T1, murine TLR2 (HEK-Blue™-mTLR2 cells) (Mus musculus, UniProt Q9QUN7); experiment: TLR2 agonism in HEK-Blue-mTLR2 cells (SEAP reporter); settings: for SEAP production / TLR2 agonism in HEK-Blue™-mTLR2: Example 2, FIG. 4A-4C, 10-12 h incubation, absorbance 635 nm; for SEAP production / TLR2 agonism in HEK-Blue™-mTLR2 / TLR2 agonism for mTLR2: result in words; for TLR2 agonism for mTLR2: Example 8, FIG. 6A, dilution series 10^−6 M to 10^−11 M
T1 construct: host or cells: HEK-Blue-mTLR2 (HEK cells co-transfected with murine TLR2 and the SEAP reporter)
T1 sequence (Q9QUN7 25-784): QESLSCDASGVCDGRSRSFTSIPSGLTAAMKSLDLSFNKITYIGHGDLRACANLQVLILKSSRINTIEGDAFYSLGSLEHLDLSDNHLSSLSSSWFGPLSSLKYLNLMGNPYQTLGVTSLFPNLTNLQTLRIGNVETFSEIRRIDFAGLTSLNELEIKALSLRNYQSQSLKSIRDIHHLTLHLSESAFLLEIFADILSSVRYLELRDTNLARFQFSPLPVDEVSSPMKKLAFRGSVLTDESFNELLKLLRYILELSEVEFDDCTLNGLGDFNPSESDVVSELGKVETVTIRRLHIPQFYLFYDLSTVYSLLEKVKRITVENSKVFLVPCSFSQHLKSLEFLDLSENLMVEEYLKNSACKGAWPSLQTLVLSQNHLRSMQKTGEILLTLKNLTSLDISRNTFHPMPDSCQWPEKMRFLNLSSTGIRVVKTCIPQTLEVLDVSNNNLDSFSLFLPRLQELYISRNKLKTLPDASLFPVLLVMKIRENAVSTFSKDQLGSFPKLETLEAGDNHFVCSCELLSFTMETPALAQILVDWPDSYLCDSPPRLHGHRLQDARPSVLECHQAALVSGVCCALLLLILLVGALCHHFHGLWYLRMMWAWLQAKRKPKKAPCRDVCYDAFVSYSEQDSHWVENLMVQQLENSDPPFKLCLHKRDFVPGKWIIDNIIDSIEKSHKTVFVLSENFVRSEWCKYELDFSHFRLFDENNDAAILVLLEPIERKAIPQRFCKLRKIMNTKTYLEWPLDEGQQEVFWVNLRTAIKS
Experimental: (§1) HEK-Blue™ Detection medium, HEK-Blue™-hTLR2 and HEK-Blue™-mTLR2 were purchased from Invivogen. These HEK-Blue cells were produced by co-transfection of both reporter gene SEAP (secreted embryonic alkaline phosphatase) and either human or murine TLR2, respectively. The SEAP reporter gene is under the control of the IFN-B minimal promoter fused to five AP-1 and five NFkB binding sites. Cells were cultured according to manufacturer's instructions.
(§2) On the day of the assay, TLR agonists 510, 520, 530, 540, 550 or PBS (negative control) were added at the indicated concentrations in 20 μl volume of endotoxin free water in a 96-well plate. HEK-Blue™-hTLR2 or […] were resuspended at ˜2.78×10^5 cells/ml in HEK-Blue™ Detection medium and 180 μl of the cell suspension added to each well (˜5×10^4 cells). Cells were incubated for 10-12 h at 37° C. in 5% CO2. SEAP expression was quantified using an EnSpire plate reader (PerkinElmer) at […]. Data presented as mean+/−SD ABS or mABS (635 nm) values for triplicate wells following background subtraction.
(§3) The TLR2 agonism of the agonists in Table 4 were investigated in HEK-Blue™-mTLR2 (FIG. 6A) and HEK-Blue™-hTLR2 (FIG. 6B) cells by following a procedure analogous to that described in section 2.1 of Example 2 across a 6-log10 dilution series (10^−6 M to 10^−11 M). (R/S)-Pam-1-Cys-NH2 was tested only at 10^−6 and 10^−9 M. Data presented as mean+/−SD absorbance (635 nm) values for triplicate wells following background subtraction, with dotted lines representing absorbance in wells treated with media only.

[2] = biological target: T2, human TLR2 (HEK-Blue™-hTLR2 cells) (Homo sapiens, UniProt O60603); experiment: TLR2 agonism in HEK-Blue-hTLR2 cells (SEAP reporter); settings: for SEAP production / TLR2 agonism in HEK-Blue™-hTLR2: Example 2, FIG. 4A-4C, 10-12 h incubation, absorbance 635 nm
T2 construct: host or cells: HEK-Blue-hTLR2 (HEK cells co-transfected with human TLR2 and the SEAP reporter)
T2 sequence (O60603 21-784): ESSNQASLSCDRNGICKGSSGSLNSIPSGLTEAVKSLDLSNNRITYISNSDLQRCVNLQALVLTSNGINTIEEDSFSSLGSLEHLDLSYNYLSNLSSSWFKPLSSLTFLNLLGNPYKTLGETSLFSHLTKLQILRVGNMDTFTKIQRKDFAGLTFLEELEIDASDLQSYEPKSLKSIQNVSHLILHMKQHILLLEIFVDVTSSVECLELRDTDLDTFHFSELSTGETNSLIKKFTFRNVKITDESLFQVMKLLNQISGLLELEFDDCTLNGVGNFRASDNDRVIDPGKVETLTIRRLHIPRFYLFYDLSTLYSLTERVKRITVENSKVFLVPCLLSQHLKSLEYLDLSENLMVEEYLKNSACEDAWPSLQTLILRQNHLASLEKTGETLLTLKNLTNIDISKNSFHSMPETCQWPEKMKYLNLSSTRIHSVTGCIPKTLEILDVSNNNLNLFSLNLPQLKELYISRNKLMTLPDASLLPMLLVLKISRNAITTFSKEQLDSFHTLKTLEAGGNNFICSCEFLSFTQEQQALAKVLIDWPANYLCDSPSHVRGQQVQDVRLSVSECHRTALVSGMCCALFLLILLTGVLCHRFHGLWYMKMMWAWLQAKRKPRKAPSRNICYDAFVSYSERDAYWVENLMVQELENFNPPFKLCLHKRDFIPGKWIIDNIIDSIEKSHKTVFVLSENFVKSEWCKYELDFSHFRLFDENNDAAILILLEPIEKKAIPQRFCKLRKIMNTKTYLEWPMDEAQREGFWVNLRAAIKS
Experimental: as §1, §2, §3

[3] = system: CD8+ T cell clones with TLR2+ HLA-A2+ lymphoblastoid B-cell lines (LCL) as antigen-presenting cells; experiment: Peptide processing and presentation to CD8+ T-cell clones by LCL (CD137 expression, flow cytometry); settings: result in words
Experimental: Epstein-Barr Virus-transformed TLR2+ HLA-A2+ lymphoblastoid B-cell lines (LCL) were used as antigen-presenting cells in all peptide processing and presentation assays. LCL were incubated for 16 h in RF10+peptide/construct as indicated at desired concentrations. Untreated LCL were incubated in RF10 only. LCL/construct incubation was performed in 96 well plates (U-bottom, BD Biosciences) or in 48wp (flat bottom, BD Biosciences) depending of the nature of the assay and the numbers of LCL required per treatment. Following incubation, LCL were thoroughly washed with RPMI 1640 to remove unbound construct/peptide.
To enable flow cytometric detection, CD8+ T cell clones were pre-stained with 0.5 μM CellTrace™ Violet (“CTV”) (Life Technologies™) following manufacturer's protocols prior to seeding into APC wells. Loaded, washed LCL and CTV-stained T cell clones were seeded in 96 well plate wells (U-bottom) at a ratio of 4:1 (LCL: T cell) in duplicate (typical numbers of cells used were 1.25×10^4 cells/ml T cells and 5×10^4 cells/ml APC). Following seeding, plates were gently centrifuged (≤300×g, 3 minutes) to allow immediate interaction, and incubated for 26 hours in a standard cell culture incubator.
To detect T cell activation, samples were stained with anti-CD8:AlexaFluor700 and anti-CD137:PE antibodies (both Biolegend). […]

| Substance | SEAP production / TLR2 agonism in HEK-Blue™-mTLR2 [1] | SEAP production / TLR2 agonism in HEK-Blue™-hTLR2 ([2]; result in words) | further results |
| --- | --- | --- | --- |
| 521: Pam2Cys-SKKKK conjugated to peptide NLVPMVATVK(Ac) (Pam2Cys-SKKKKNLVPMVATVK(Ac)) [compound 521, reference compound] | relative loss of agonism when compared to unconjugated Pam3Cys-SKKKK | relative loss of agonism when compared to unconjugated Pam3Cys-SKKKK |  |
| 551: Homo-Pam2Cys(NHAc)-SKKKK conjugated to peptide NLVPMVATVK(Ac) ({homoPam2Cys(NHAc)}-SKKKKNLVPMVATVK(Ac); also: conjugated to lipopeptide, linkage not given here) [compound 551] | did not result in any loss of agonism, and homoPam2Cys(NHAc)-SKKKK-NLVPMVATVK(Ac) remained a more potent agonist than Pam3Cys-SKKKK, particularly at nM concentrations | did not result in any loss of agonism, and homoPam2Cys(NHAc)-SKKKK-NLVPMVATVK(Ac) remained a more potent agonist than Pam3Cys-SKKKK, particularly at nM concentrations | T-cell clone activation (live clonal cells positive for CD137) ([3]; NLV-bearing constructs, FIG. 4D, LCL loaded 16 h, co-culture 26 h): comparable T-cell clone activation to NLV-bearing-Pam2Cys-SKKKK (521), and superior T-cell clone activation to NLV-bearing-Pam1Cys-SKKKK (511) |
| 552: Homo-Pam2Cys(NHAc)-SKKKK conjugated to peptide VPGVLLKEFTVSGNILTIRLTAADHR (homo-Pam2Cys(NHAc)-SKKKK conjugate) [compound 552] |  |  | T-cell clone activation (live clonal cells positive for CD137) ([3]; VPG-bearing constructs and VPG long peptide, FIG. 4E, epitope EFTVSGNIL): superior T-cell clone activation to VPG-bearing-Pam1Cys-SKKKK (512); also recorded: superior to VPG peptide alone (500) |
| (R)-Pam2Cys-SKKKK-NH2: enantiopure epimeric TLR agonist of Table 4 ([(R)‑Pam2Cys]SKKKK-NH2; also: (R) epimer, enantiopure) [reference compound] |  |  | TLR2 agonism for mTLR2 [1]: increase in NKκB production at 10^−10 and 10^−11 M only |
| (R)-Pam3Cys: enantiopure epimeric TLR agonist of Table 4 (CSKKKK) [reference compound] |  |  | NFκB production maintained at lower concentration than paired (S)-version ([1]; mTLR2, (R)- vs (S)-epimer): ≥ 10 fold; NFκB production maintained at lower concentration than paired (S)-version ([2]; hTLR2, (R)- vs (S)-epimer): ≥ 10 fold |
| Pam1Cys-SKKKK-NH2: TLR agonist of Table 4 ([Pam1Cys]SKKKK-NH2) [reference compound] |  |  | TLR2 agonism for mTLR2 [1]: no agonism at any concentration for mTLR2; TLR2 agonism for hTLR2 ([2]; Example 8, FIG. 6B, dilution series 10^−6 M to 10^−11 M, result in words): agonism for hTLR2 at 10^−6 M but not 10^−9 M |
| Pam1Cys-SKKKK: known TLR2 agonist, prepared in-house; lipid/linker component Pam1Cys-SKKKK without peptide ([Pam1Cys]SKKKK) [reference compound] | not active in HEK-Blue™-mTLR2 at sub-μM concentrations |  |  |
| Pam2Cys-SKKKK: known TLR2 agonist, prepared in-house; lipid/linker component Pam2Cys-SKKKK without peptide ([Pam2Cys]SKKKK) [reference compound] | most potent agonist tested | most potent agonist tested |  |
| homoPam2Cys(NH2)-SKKKK: Lipopeptide TLR2 agonist of the invention: Homo-Pam2Cys(NH2) lipid component with SKKKK linker, no epitope peptide ([homoPam2Cys(NH2)]SKKKK) | equivalent SEAP production to Pam3Cys-SKKKK; also recorded: demonstrably more potent TLR2 agonists than Pam1CYs-SKKKK; also recorded: active in both HEK-Blue™-mTLR2 and -hTLR2 to sub-nM concentrations | comparable production in HEK-Blue™-hTLR2; also recorded: demonstrably more potent TLR2 agonists than Pam1CYs-SKKKK; also recorded: active in both HEK-Blue™-mTLR2 and -hTLR2 to sub-nM concentrations |  |
| homoPam2Cys(NHAc)-SKKKK: Lipopeptide TLR2 agonist of the invention: Homo-Pam2Cys(NHAc) lipid component with SKKKK linker, no epitope peptide ([homoPam2Cys(NHAc)]SKKKK) | equivalent SEAP production to the most potent agonist tested (Pam2Cys-SKKKK) at ≥1 nM and comparable production at sub-nM concentrations; also recorded: demonstrably more potent agonist than Pam3Cys-SKKKK or homoPam2Cys(NH2)-SKKKK; also recorded: demonstrably more potent TLR2 agonists than Pam1CYs-SKKKK; also recorded: active in both HEK-Blue™-mTLR2 and -hTLR2 to sub-nM concentrations | equivalent SEAP production to the most potent agonist tested (Pam2Cys-SKKKK) at ≥1 nM and comparable production at sub-nM concentrations; also recorded: demonstrably more potent agonist than Pam3Cys-SKKKK or homoPam2Cys(NH2)-SKKKK; also recorded: demonstrably more potent TLR2 agonists than Pam1CYs-SKKKK; also recorded: active in both HEK-Blue™-mTLR2 and -hTLR2 to sub-nM concentrations |  |
